Laboratory results as given in article PMC10306287, “Computational design of the temperature optimum of an enzyme reaction” (Science Advances, 2023).

B1: AHA (WT AHA α-amylase) (Pseudoalteromonas haloplanktis) (protein)
chain: TPTTFVHLFEWNWQDVAQECEQYLGPKGYAAVQVSPPNEHITGSQWWTRYQPVSYELQSRGGNRAQFIDMVNRCSAAGVDIYVDTLINHMAAGSGTGTAGNSFGNKSFPIYSPQDFHESCTINNSDYGNDRYRVQNCELVGLADLDTASNYVQNTIAAYINDLQAIGVKGFRFDASKHVAASDIQSLMAKVNGSPVVFQEVIDQGGEAVGASEYLSTGLVTEFKYSTELGNTFRNGSLAWLSNFGEGWGFMPSSSAVVFVDNHDNQRGHGGAGNVITFEDGRLYDLANVFMLAYPYGYPKVMSSYDFHGDTDAGGPNVPVHNNGNLECFASNWKCEHRWSYIAGGVDFRNNTADNWAVTNWWDNTNNQISFGRGSSGHMAINKEDSTLTATVQTDMASGQYCNVLKGELSADAKSCSGEVITVNSDGTINLNIGAWDAMAIHKNAKLNTSSAS
notes: mature peptide residues 25-477, signal peptide excluded, codon-optimised in pET-22b(+), E. coli NiCo21(DE3), HisTrap purified (tag not described)

What was measured:
AHA (WT AHA α-amylase) = molecular target: T1, AHA (WT AHA α-amylase) (Pseudoalteromonas haloplanktis, UniProt P29957); test: steady-state hydrolysis, 96-well spectrophotometer, nonlinear regression; format: biochemical; conditions: 25 °C, PBS, 60 nM enzyme
T1 construct: gene amy; mature peptide residues 25-477, signal peptide excluded, codon-optimised in pET-22b(+), E. coli NiCo21(DE3), HisTrap purified (tag not described)

[1] = substrate: O=[N+]([O-])c1ccc(O[C@H]2O[C@H](CO)[C@@H](O[C@H]3O[C@H](CO)[C@@H](O[C@H]4O[C@H](CO)[C@@H](O)[C@H](O)[C@H]4O)[C@H](O)[C@H]3O)[C@H](O)[C@H]2O)c(Cl)c1; test: as above; format: biochemical, Pseudoalteromonas haloplanktis; conditions: 25 °C, PBS, 60 nM enzyme

Row | Molecule | Km (AHA (WT AHA α-amylase)) | Km [1] | kcat [1]
1 | O=[N+]([O-])c1ccc(O[C@H]2O[C@H](CO)[C@@H](O[C@H]3O[C@H](CO)[C@@H](O[C@H]4O[C@H](CO)[C@@H](O)[C@H](O)[C@H]4O)[C@H](O)[C@H]3O)[C@H](O)[C@H]2O)c(Cl)c1 [2-chloro-4-nitrophenyl-α-D-maltotrioside] | 2240 ± 220 µM |  | 
2 | B1 |  | 2810 ± 110 µM | 1.775 ± 0.11 s⁻¹
